B1: nsp9, full-length (natural protein)
chain: NNELSPVALRQMSCAAGTTQTACTDDNALAYYNTTKGGRFVLALLSDLQDLKWARFPKSDGTGTIYTELEPPCRFVTDTPKGPKVKYLYFIKGLNNLNRGMVLGSLAATVRLQ
notes: also called fl nsp9
B2: ORF14 (ORF9c) protein, full-length (natural protein)
chain: MLQSCYNFLKEQHCQKASTQKGAEAAVKPLLVPHHVVATVQEIQLQAAVGELLLLEWLAMAVMLLLLCCCLTD
notes: also called OFR14

Key:
[1] = target: the molecule itself; assay: SEC
[2] = target: the molecule itself; assay: SEC; SEC profile of cell-free synthesized ORF14 in DDM detergent micelles

| Protein | stoichiometry N [1] | stoichiometry N [2] |
| --- | --- | --- |
| B1 | 2 | – |
| B2 | – | ~9 |

From paper PMC8141814 (Frontiers in Molecular Biosciences, 2021)
